Measurements from patent publication US20250297004A1, “NECTIN-4 BINDING AGENTS” (INNATE PHARMA, priority 2022, published 2025).

What was measured:
human Nectin-4 = molecular target: T1, human Nectin-4 (Homo sapiens, UniProt Q96NY8); test: Binding to human Nectin-4 by SPR; conditions: for ka: SPR association constant; for kd: SPR dissociation constant; for Kd: SPR, human IgG1 isotype antibodies
T1 sequence (Q96NY8 32-510): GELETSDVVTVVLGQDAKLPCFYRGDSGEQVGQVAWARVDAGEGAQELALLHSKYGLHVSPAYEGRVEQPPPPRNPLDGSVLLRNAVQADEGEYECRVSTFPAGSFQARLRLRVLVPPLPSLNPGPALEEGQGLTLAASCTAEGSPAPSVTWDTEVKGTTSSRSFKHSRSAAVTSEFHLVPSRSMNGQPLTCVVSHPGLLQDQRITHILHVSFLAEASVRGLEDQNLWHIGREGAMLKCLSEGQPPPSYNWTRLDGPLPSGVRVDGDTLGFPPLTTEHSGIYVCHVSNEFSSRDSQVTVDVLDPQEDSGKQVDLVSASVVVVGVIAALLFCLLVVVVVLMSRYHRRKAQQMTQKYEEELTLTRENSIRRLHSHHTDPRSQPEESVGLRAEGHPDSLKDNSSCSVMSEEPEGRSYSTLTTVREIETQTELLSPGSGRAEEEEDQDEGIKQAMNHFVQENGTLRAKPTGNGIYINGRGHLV
Description: (§1) The antibodies in Table 3 of Example 3 were cloned as human IgG1 isotype antibodies, produced and purified, then tested for binding to human Nectin-4. Affinity of the 16 humanized variants, as well as their association and dissociation constants were assessed by SPR analysis. Table 4 summarizes all the calculated constants (Affinity constant KD (nM), association constant ka (1/Ms) and dissociation constant kd (1/s)).
as §1, with “Table 6” for “Table 3”, “Example 5” for “Example 3”, “Table 7” for “Table 4”

[1] = molecular target: T2, mouse Nectin-4 protein expressed on CHO cells (mouse, UniProt Q8R007 32-508); test: flow cytometry on CHO cells expressing mouse Nectin-4
T2 construct: also called Mouse Nectin-4-V5
T2 sequence: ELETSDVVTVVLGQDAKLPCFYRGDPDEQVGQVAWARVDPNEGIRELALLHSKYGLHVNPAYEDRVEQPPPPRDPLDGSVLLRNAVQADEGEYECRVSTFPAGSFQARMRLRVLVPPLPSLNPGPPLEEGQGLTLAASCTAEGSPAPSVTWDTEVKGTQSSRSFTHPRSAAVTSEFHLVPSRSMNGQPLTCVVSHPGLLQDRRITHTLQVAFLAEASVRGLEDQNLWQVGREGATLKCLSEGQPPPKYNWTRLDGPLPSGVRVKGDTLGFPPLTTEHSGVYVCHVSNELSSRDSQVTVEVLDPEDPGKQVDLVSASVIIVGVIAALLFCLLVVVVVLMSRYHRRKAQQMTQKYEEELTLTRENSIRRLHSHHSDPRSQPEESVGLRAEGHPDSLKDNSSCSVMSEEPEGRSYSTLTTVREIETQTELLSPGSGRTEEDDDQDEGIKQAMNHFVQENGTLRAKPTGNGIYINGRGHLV

[2] = molecular target: T3, human Nectin-4 expressed on cells (human, UniProt Q96NY8 32-510); test: flow cytometry on SUM190 cells, MedFI at saturation
T3 construct: On SUM190, SUM185, MDA-MB-468 cells (endogenous) or transfected cells; 31-residue signal peptide left out; also called huN4; wild-type human Nectin-4
T3 sequence: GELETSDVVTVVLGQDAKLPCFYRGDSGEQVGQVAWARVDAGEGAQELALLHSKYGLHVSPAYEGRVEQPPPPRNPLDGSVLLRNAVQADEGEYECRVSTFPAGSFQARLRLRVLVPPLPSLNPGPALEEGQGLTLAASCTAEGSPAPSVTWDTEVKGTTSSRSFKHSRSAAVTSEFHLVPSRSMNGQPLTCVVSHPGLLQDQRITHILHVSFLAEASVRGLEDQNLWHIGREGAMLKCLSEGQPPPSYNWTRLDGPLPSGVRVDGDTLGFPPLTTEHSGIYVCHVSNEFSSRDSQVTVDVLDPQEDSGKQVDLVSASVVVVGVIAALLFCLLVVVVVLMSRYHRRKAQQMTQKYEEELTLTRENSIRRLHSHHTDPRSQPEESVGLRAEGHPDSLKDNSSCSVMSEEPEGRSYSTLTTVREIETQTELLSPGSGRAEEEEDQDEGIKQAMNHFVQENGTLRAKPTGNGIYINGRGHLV
Description: The humanized antibodies in Table 3 of Example 3 and in Table 6 of Example 5 were cloned, produced and purified, then tested for binding to Nectin-4 expressing cells by flow cytometry. Binding of humanized variants in human IgG1 format was determined on the SUM190 cell line expressing high levels of Nectin-4.

human Nectin-4 Mutant 1 = molecular target: T4, human Nectin-4 Mutant 1 (human, UniProt Q96NY8 32-510); test: binding to HEK293T cells expressing Nectin-4 mutant
T4 construct: Expressed on transfected HEK293T cells; also called S58P/G59D/Q61A/N106D/P107A
T4 chain: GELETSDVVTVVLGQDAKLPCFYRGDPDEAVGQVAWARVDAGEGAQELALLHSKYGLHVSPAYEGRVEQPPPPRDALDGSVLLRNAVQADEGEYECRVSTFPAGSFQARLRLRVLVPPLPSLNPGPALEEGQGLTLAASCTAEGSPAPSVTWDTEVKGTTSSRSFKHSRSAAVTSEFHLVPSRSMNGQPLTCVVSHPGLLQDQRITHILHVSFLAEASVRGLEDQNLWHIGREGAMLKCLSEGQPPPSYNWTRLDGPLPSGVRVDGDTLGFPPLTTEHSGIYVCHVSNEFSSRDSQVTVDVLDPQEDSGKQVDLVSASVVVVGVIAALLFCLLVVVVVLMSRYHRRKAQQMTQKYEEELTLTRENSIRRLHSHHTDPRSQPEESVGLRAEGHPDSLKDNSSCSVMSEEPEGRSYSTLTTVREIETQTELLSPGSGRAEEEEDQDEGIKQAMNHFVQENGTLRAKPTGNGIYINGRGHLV

[3] = molecular target: T5, human Nectin-4 Mutant 7bis (human, UniProt Q96NY8 32-510); test: as above
T5 construct: Expressed on transfected HEK293T cells; also called A72P/G73N/K197T/S199A
T5 chain: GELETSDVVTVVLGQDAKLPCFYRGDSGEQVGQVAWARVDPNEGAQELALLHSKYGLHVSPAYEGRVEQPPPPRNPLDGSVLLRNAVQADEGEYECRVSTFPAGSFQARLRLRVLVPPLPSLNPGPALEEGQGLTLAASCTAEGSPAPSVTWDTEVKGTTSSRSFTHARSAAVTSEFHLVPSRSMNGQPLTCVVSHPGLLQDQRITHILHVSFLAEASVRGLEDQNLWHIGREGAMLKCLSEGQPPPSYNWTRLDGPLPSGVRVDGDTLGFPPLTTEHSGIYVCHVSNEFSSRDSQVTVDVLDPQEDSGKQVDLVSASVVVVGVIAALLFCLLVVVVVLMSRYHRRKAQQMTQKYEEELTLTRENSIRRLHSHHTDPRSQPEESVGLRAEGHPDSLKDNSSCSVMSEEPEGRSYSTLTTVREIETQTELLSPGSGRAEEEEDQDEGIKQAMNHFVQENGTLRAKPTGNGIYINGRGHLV

B1: 5E7 (antibody, V domains shown)
VH: QVQLQQPGAELVKPGASVKLSCKASGYIFTSYWMHWVKQRPGQGLEWIGEIDPSDSYTNYNQKFKGKATLTLDKSSSTTYMQLSSLTSEDSAVYYCVRGYGNYGDYWGQGTTLTVSSASTKGP
VL: DVVMTQAAFSNPVTLGTSASISCRSSKSLLHSNGITYLYWYLQKPGQSPQLLIYQMSNLASGVPDRFSSSGSGTDFTLRISRVEAEDVGVYYCAQNLELPWTFGGGTKLEIKRTVAAP
- ka (human Nectin-4; first set (Table 4)): 480000 ± 1e-05 M⁻¹ s⁻¹
- ka (human Nectin-4; second set (Table 7)): 480000 ± 1e-05 M⁻¹ s⁻¹
- kd (human Nectin-4; first set (Table 4)): 0.0027 ± 0.0003 s⁻¹
- kd (human Nectin-4; second set (Table 7)): 0.0027 ± 0.0003 s⁻¹
- Kd (human Nectin-4; first set (Table 4)): 5.9 ± 1.2 nM
- Kd (human Nectin-4; second set (Table 7)): 5.9 nM

B2: chimeric parental 5E7 antibody (antibody, V domains shown)
VH: QVQLQQPGAELVKPGASVKLSCKASGYIFTSYWMHWVKQRPGQGLEWIGEIDPSDSYTNYNQKFKGKATLTLDKSSSTTYMQLSSLTSEDSAVYYCVRGYGNYGDYWGQGTTLTVSS
VL: DVVMTQAAFSNPVTLGTSASISCRSSKSLLHSNGITYLYWYLQKPGQSPQLLIYQMSNLASGVPDRFSSSGSGTDFTLRISRVEAEDVGVYYCAQNLELPWTFGGGTKLEIKR
notes: Chimeric antibody, murine variable domains with human constant regions; also called ch5E7; CHG1-M-1N4-5E7
- binding result [1]: no binding
- Max MedFi [2]: 25200 MedFI
- binding result (human Nectin-4 Mutant 1): binds

B3: N41 (antibody, V domains shown)
VH: QVQLKQSGPGLVQPSQSLSITCTVSGFSLTNYGVHWVRQSPGKGLEWLGVIWSGGSTDYNAAFISRLSISKDTSKSQVFFKMNSLQADDTAIYYCARELIHAMDNWGQGTSVTVSS
VL: DIQMTQSPASLSVSVGETVTITCRASENIYSNLAWYQQKQGNSPQLLVFAATNLADGVPSRFSGSGSGTQYSLKINSLQSEDFGTYYCQHFWGTPTFGGGTKLEIK
- binding result [3]: binds
